These results are taken from paper PMC10539301, “Structure of the human ATAD2 AAA+ histone chaperone reveals mechanism of regulation and inter-subunit communication” (Communications Biology, 2023).

Numbering of substitutions follows the chain as printed. Names may count otherwise.

The stoichiometry N is the number of molecules, sites or subunits per partner or assembly.

Data set [1] deals with the molecule itself. The data set can be described thus: SEC + native gel or EMSA + other: negative stain electron microscopy; purified ATAD2 (aa 403-1390) variants; wild type in the absence and presence of ATP; Supplementary Fig. 1. In general terms: Mobility shift assays separate free from complexed probe on a gel.
Data set [2] deals with the molecule itself. The data set can be described thus: cryo-EM structure; ATAD2 Walker B mutant and refolded H3/H4 or H3/H4K5Q mixed 1:1.5 in 150 mM NaCl, cross-linked with 1 mM DSS, purified on a 10-30% sucrose gradient; vitrified at 1.2 mg/mL with 1 mM Mg-ATP; classes I-III at 3.8, 4.3, 4.3 Å.
Data set [3] has as its target Histone H4 (X. laevis, recombinant) (X. laevis, UniProt P62799 1-103). The data set can be described thus: cross-linking; DSS 1 mM, 30 min, 37 °C, in 25 mM HEPES pH 7.5, 150 mM NaCl, 5% glycerol, 1 mM DTT; sucrose gradient fraction of hexameric ATAD2; cross-links found by mass spectrometry (XL-MS). The settings on record: both partners purified.
In data set [4] the target is Histone H3 (X. laevis, recombinant) (X. laevis, UniProt P84233 1-136). The data set is described as above. The settings on record: both partners purified.
Data set [5] concerns the target T1, Histone H3/H4 complex (X. laevis, wild type, refolded) (X. laevis, UniProt P84233 1-136; P62799 1-103).
T1 construct: It was pooled as the H3/H4 tetramer in 2 M NaCl and diluted to 150 mM NaCl before mixing; also called wild type H3/H4
Described as above. The settings on record: both partners purified.

B1: N-terminally truncated ATAD2 (aa 403-1390), wild type (domain or fragment, human, UniProt Q6PL18 403-1390, looked up)
chain: DRMKIGASLADVDPMQLDSSVRFDSVGGLSNHIAALKEMVVFPLLYPEVFEKFKIQPPRGCLFYGPPGTGKTLVARALANECSQGDKRVAFFMRKGADCLSKWVGESERQLRLLFDQAYQMRPSIIFFDEIDGLAPVRSSRQDQIHSSIVSTLLALMDGLDSRGEIVVIGATNRLDSIDPALRRPGRFDREFLFSLPDKEARKEILKIHTRDWNPKPLDTFLEELAENCVGYCGADIKSICAEAALCALRRRYPQIYTTSEKLQLDLSSINISAKDFEVAMQKMIPASQRAVTSPGQALSTVVKPLLQNTVDKILEALQRVFPHAEFRTNKTLDSDISCPLLESDLAYSDDDVPSVYENGLSQKSSHKAKDNFNFLHLNRNACYQPMSFRPRILIVGEPGFGQGSHLAPAVIHALEKFTVYTLDIPVLFGVSTTSPEETCAQVIREAKRTAPSIVYVPHIHVWWEIVGPTLKATFTTLLQNIPSFAPVLLLATSDKPHSALPEEVQELFIRDYGEIFNVQLPDKEERTKFFEDLILKQAAKPPISKKKAVLQALEVLPVAPPPEPRSLTAEEVKRLEEQEEDTFRELRIFLRNVTHRLAIDKRFRVFTKPVDPDEVPDYVTVIKQPMDLSSVISKIDLHKYLTVKDYLRDIDLICSNALEYNPDRDPGDRLIRHRACALRDTAYAIIKEELDEDFEQLCEEIQESRKKRGCSSSKYAPSYYHVMPKQNSTLVGDKRSDPEQNEKLKTPSTPVACSTPAQLKRKIRKKSNWYLGTIKKRRKISQAKDDSQNAIDHKIESDTEETQDTSVDHNETGNTGESSVEENEKQQNASESKLELRNNSNTCNIENELEDSRKTTACTELRDKIACNGDASSSQIIHISDENEGKEMCVLRMTRARRSQVEQQQLITVEKALAILSQPTPSLVVDHERLKNLLKTVVKKSQNYNIFQLENLYAVISQCIYRHRKDHDKTSLIQKMEQEVENFSCSR
notes: ATAD2 (ATPase family AAA domain-containing 2), human, aa 403-1390, from a codon-optimized synthetic full-length gene (Genscript); The vector has a Tev protease site after the 3xFlag tag; No cleavage step is described in the purification; also called wild type ATAD2
Regarding B1, in data set [1], the binding result was “binds”.

B2: ATAD2 Walker B mutant (E532Q), aa 403-1390 (domain or fragment, human, UniProt Q6PL18 403-1390, looked up)
chain: B1 chain with E130Q
notes: ATAD2 (ATPase family AAA domain-containing 2), human, aa 403-1390, Walker B mutation E532Q; A Tev site follows the tag, and no cleavage step is described; also called ATAD2 (in the structure sections); not shown: 3xFlag, N-terminal, kept
For B2, in data set [2], the “stoichiometry N” value turned out to be 6. For the same molecule, the binding result in data set [3], in data set [4] and in data set [5] was “binds” in each case.

B3: ATAD2 LD/Walker B triple mutant (D415A/E532Q/R540A), aa 403-1390 (domain or fragment, human, UniProt Q6PL18 403-1390, looked up)
chain: B1 chain with D13A, E130Q, R138A
notes: ATAD2, human, aa 403-1390, with D415A, E532Q and R540A; source: SF9 cells (baculovirus), purified
On to B3, for which, in data set [1], the binding result is “binds”.
